Measured values: patent US20190048055A1

Biological target: CD38 molecules expressed on Daudi human B-cell lymphoma cells (human) (UniProt P28907)
Test: cell-based or functional assay

anti-CD38 Ab (daratumumab) (antibody) showed an ADCC of human PBMCs against Daudi cells, dose response of anti-CD38 Ab (0.1 nM to 50 nM); lowest antibody concentration with increased killing of 0.1 nM.
